Source: PMC9751120

B1: p63 Sterile α-motif (SAM) domain (domain or fragment)
chain: PPYPTDCSIVSFLARLGCSSCLDYFTTQGLTTIYQIEHYSMDDLASLKIPEQFRHAIWKGILDHRQL
B2: ΔNp63α (natural protein)
chain: MLYLENNAQTQFSEPQYTNLGLLNSMDQQIQNGSSSTSPYNTDHAQNSVTAPSPYAQPSSTFDALSPSPAIPSNTDYPGPHSFDVSFQQSSTAKSATWTYSTELKKLYCQIAKTCPIQIKVMTPPPQGAVIRAMPVYKKAEHVTEVVKRCPNHELSREFNEGQIAPPSHLIRVEGNSHAQYVEDPITGRQSVLVPYEPPQVGTEFTTVLYNFMCNSSCVGGMNRRPILIIVTLETRDGQVLGRRCFEARICACPGRDRKADEDSIRKQQVSDSTKNGDGTKRPFRQNTHGIQMTSIKKRRSPDDELLYLPVRGRETYEMLLKIKESLELMQYLPQHTIETYRQQQQQQHQHLLQKQTSIQSPSSYGNSSPPLNKMNSMNKLPSVSQLINPQQRNALTPTTIPDGMGANIPMMGTHMPMAGDMNGLSPTQALPPPLSMPSTSHCTPPPPYPTDCSIVSFLARLGCSSCLDYFTTQGLTTIYQIEHYSMDDLASLKIPEQFRHAIWKGILDHRQLHEFSSPSHLLRTPSSASTVSVGSSETRGERVIDAVRFTLRQTISFPPRDEWNDFNFDMDARRNKQQRIKEEGE

Legend:
DARPin A5 [1] = assay: ITC; target proteins titrated to constant concentrations of DARPin; 50 mM HEPES, pH 7.4, 150 mM NaCl, 0.5 mM TCEP; AB hetero-association model (SEDPHAT); temperatures not shown
DARPin A5 [2] = assay: ITC; target protein titrated into a constant concentration of DARPin, 25 injections of 10 µl; 50 mM HEPES pH 7.4, 150 mM NaCl, 0.5 mM TCEP; 25 °C; AB hetero-association model (SEDPHAT)
[3] = biological target: Alexa 488 labeled DARPin 8F1; assay: fluorescence polarisation; fluorescence anisotropy; 500 nM Alexa 488 labeled DARPin constant, p63 isoform 0-10 µM; 50 mM Tris pH 8, 150 mM NaCl, 0.5 mM TCEP, 0.1 % Tween-20; the sheet says 20 °C, the methods 16 °C
[4] = biological target: Alexa 488 labeled DARPin A5; assay: as above
[5] = biological target: Alexa 488 labeled DARPin C14; assay: as above

| Binder | Kd (DARPin A5 [1]) [nM] | Ka (DARPin A5 [2]) [M⁻¹] | Kd [3] [nM] | Kd [4] [nM] | Kd [5] [nM] |
| --- | --- | --- | --- | --- | --- |
| B1 | 16 | 6.18e+07 |  |  |  |
| B2 |  |  | 95.6 | 67.9 | 202 |
